Source: PMC11231238, “SPRING licenses S1P-mediated cleavage of SREBP2 by displacing an inhibitory pro-domain” (Nature Communications, 2024)

Target: T1, FLAG-S1P_(ecto)-His10, matured C-form (human, UniProt Q14703 187-998)
T1 construct: human S1P (MBTPS1); expressed as IgK leader-FLAG-residues 23-998-His10; after autoproteolysis the His10-bearing C-form; The N-terminal FLAG tag leaves with the A-domain; also called WT S1P_(ecto); C-form of S1P_(ecto); source: HEK 293S GnTI- (BacMam baculovirus), secreted, purified (NiNTA, gel filtration); HEK 293T, transfected, secreted, in supernatant; not shown: His10, C-terminal, kept
T1 sequence (looked up): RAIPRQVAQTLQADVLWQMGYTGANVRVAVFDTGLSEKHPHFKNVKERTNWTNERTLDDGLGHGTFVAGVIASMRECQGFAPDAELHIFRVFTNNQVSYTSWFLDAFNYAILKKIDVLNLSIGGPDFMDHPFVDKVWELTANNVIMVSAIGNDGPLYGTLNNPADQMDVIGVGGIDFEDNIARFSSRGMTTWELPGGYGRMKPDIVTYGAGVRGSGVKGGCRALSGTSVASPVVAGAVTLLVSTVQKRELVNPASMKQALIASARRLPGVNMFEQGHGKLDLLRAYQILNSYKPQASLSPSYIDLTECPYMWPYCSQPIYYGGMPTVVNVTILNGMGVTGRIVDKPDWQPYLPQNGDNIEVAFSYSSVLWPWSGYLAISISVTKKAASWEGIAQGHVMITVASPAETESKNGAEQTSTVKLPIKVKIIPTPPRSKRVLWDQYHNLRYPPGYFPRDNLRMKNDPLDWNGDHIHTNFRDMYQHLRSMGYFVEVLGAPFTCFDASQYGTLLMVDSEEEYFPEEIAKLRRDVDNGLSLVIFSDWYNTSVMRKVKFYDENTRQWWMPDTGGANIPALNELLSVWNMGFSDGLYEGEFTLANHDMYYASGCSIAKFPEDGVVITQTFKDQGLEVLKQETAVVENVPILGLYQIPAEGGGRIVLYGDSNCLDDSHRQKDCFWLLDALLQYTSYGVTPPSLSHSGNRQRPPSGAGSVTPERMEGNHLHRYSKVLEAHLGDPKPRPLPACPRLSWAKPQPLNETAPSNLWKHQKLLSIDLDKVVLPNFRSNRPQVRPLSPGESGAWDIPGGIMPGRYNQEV
Experiment: pull-down; HEK 293T supernatants of co-transfected cells with 50 mM imidazole; NiNTA resin holds the His10 tag of S1P_(ecto), 1-2 h at 4 °C; washes in 150 mM NaCl, 50 mM HEPES-NaOH pH 7.5, 50 mM imidazole; elution with 300 mM imidazole; immunoblot anti-HA, anti-His, anti-FLAG
Conditions: partners not purified

B1: cleaved A-domain of FLAG-S1P_(ecto)-His10 (domain or fragment, human, UniProt Q14703 23-137, looked up)
chain: DRLEKKSFEKAPCPGCSHLTLKVEFSSTVVEYEYIVAFNGYFTAKARNSFISSALKSSEVDNWRIIPRNNPSSDYPSDFEVIQIKEKQKAGLLTLEDHPNIKRVTPQRKVFRSLK
notes: human S1P (MBTPS1) A pro-domain, released by autoproteolysis from the construct FLAG-residues 23-998-His10; the construct begins at residue 23; in the cryo-EM map the density ends after K137 (cleavage at the B site); cleavage at the alternative B' site is possible too; also called A pro-domain; S1P A-domain; source: HEK 293S GnTI- (BacMam baculovirus), secreted, co-purified with S1P_(ecto) …
  binding result: binds
